This passage reports Kd results from paper PMC7294595.

For the assay, the target named is flu-pTyr (gp130-derived phosphopeptide) (Homo sapiens).

B1: STAT3 127-711, P40763 (protein)
chain: GQANHPTAAVVTEKQQMLEQHLQDVRKRVQDLEQKMKVVENLQDDFDFNYKTLKSQGDMQDLNGNNQSVTRQKMQQLEQMLTALDQMRRSIVSELAGLLSAMEYVQKTLTDEELADWKRRQQIACIGGPPNICLDRLENWITSLAESQLQTRQQIKKLEELQQKVSYKGDPIVQHRPMLEERIVELFRNLMKSAFVVERQPCMPMHPDRPLVIKTGVQFTTKVRLLVKFPELNYQLKIKVCIDKDSGDVAALRGSRKFNILGTNTKVMNMEESNNGSLSAEFKHLTLREQRCGNGGRANCDASLIVTEELHLITFETEVYHQGLKIDLETHSLPVVVISNICQMPNAWASILWYNMLTNNPKNVNFFTKPPIGTWDQVAEVLSWQFSSTTKRGLSIEQLTTLAEKLLGPGVNYSGCQITWAKFCKENMAGKGFSFWVWLDNIIDLVKKYILALWNEGYIMGFISKERERAILSTKPPGTFLLRFSESSKEGGVTFTWVEKDISGKTQIQSVEPYTKQQLNNMSFAEIIMGYKIMDATNILVSPLVYLYPDIPKEEAFGKYCRPESQEHPEADPGSAAPYLKTKFI
In turn, B1 had a Kd of 60 nM.

By Kd is commonly meant the constant that tells how readily two partners part at equilibrium.
